Here are results for eleven molecules from US20250011431A1 (ADIVO, published 2025).

Substitutions are numbered along the chain they refer to. Some results are limits rather than exact numbers.

In assay [1] the target is T1, biotinylated cPD-L1_hFc (Sino Biological Cat. 70110-D02H-B) (canine; human, biotinylated (sites not given)).
T1 construct: also called cPD-L1-biotin; cPD-L1_hFc-Biotin; not shown: human Fc tag (hFc)
T1 chain: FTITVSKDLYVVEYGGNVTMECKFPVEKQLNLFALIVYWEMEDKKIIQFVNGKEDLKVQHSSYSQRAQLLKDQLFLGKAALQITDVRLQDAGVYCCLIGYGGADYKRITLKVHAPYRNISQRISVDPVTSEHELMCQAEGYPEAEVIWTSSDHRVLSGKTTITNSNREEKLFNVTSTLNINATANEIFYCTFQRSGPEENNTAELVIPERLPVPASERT
Description: Fab-capture ELISA: Fab on anti-canine Fab capture antibody, cPD-L1_hFc-Biotin titrated. The procedure:
The screening was performed as described in Example 4. Fab binders of CAN1005016 and CAN1005019 were loaded onto plate-bound anti-canine Fab capture antibody, followed by addition of titration series of cPD-L1_hFc-Biotin. Detection was performed with Streptavidin-HRP. The parental clone CAN1005001 was included as a control. Curve fits and EC50 values were analyzed with GraphPad Prism.

Assay [2] addresses T2, cPD-L1_hFc (canine PD-L1 Fc-fusion protein; Sino Biological Cat. 70110-D02H) (canine; human).
T2 construct: Bought product; also called canine PD-L1_hFc; cPD-L1 fusion protein; not shown: human Fc tag (hFc)
T2 chain: T1 chain
Description: ELISA ligand-binding inhibition, cPD-L1_hFc on the plate, competitor PD-1-Biotin (206 nM). As to the method:
cPD-L1 fusion proteins were directly immobilized on the plate overnight at 4° C., commonly in a concentration of 57 nM. For […] ELISA, black 384 well Maxisorp plates were used. The coated plates were washed 3× with PBS-T, followed by blocking with Chemiblocker (Merck-Millipore; 2170) for 1 h at RT. The blocked plates were washed 3× with PBS-T, followed by addition of titration-series of blocking antibodies and incubation for 1 h at RT. Subsequently plates were washed again 3× with PBS-T and PD-1-Biotin (1× biotinylated via Avi-tag; Sinobiological Cat.: 70109-D27H-B) was added and incubated for 1 h at RT, usually in a concentration of 4 μg/ml (206 nM). This concentration of canine PD-1-Biotin was previously identified as optimal by titrating the binding of PD-1-Biotin towards immobilized canine PD-L1_hFc. After incubation with the ligand PD-1, the plate was washed 3× with PBS-T and suitable detection reagent for the biotinylated PD-1, usually Streptavidin-HRP, was added and incubated for 1 h at RT. Subsequently, the plate was washed 5×, followed by addition of Quanta Blue and measurement as described above for the screening ELISA.

In assay [3] the target is T2, cPD-L1_hFc (canine PD-L1 Fc-fusion …). Description: binding ELISA, cPD-L1 fusion protein on the plate.
Assay [4] addresses T1, biotinylated cPD-L1_hFc (Sino …). Kind of assay: Fab-capture ELISA: Fab from lysate on anti-canine Fab antibody, cPD-L1-biotin titrated. As to the method: To identify derivatives with a higher affinity, an alternative ELISA setup was used for screening to better normalize BEL expression levels and differentiate Fabs more efficiently with respect to their affinity. In contrast to the previous screening ELISA setup, a Maxisorp plate was coated over night with an anti-canine Fab antibody in a low density of 1 μg/ml. Coated plates were washed 3× with PBS-T, followed by loading with diluted BELs. After the BEL incubation and washing with PBS-T, dilution series of cPD-L1-biotin was added to the plate. Detection was performed with Streptavidin-HRP, followed by more stringent 5× washing with PBS-T and Quanta Blue substrate addition. Measurement was performed as described before (Example 1).

In assay [5] the target is T3, PD-L1-his (canine).
T3 construct: also called monovalent PD-L1 antigen; not shown: his tag
T3 chain: T1 chain
Description: grating-coupled interferometry, KD compared with that of CAN1005010H2. As to the method:
(§1) To further characterize the kinetic properties of our candidates CAN1005016 and CAN1005019, the KD of our candidates was quantified using waveRAPID in a GCI system according to the procedure described below. The binding kinetics study was performed on the Creoptix® WAVEdelta system using a PAG sensor chip (Creoptix, a Malvern Panalytical brand). All experiments were performed with HBS-EP (Cytiva) as running buffer, at a temperature of 25° C. and sampling rate of 10 Hz. Data acquisition and evaluation were performed using WAVEcontrol software version 4.5.13.
Prior to ligand capturing, the sensor chip was conditioned by a 180 sec injection of 100 mM sodium borate, 1 M NaCl, pH 9 (Xantec). Antibody was diluted to 1 μg/ml in HBS-EP and captured to a density of =300 pg/mm2 on flow channel 2. Flow channel 1 was left blank to serve as a reference surface. For collection of kinetic data, PD-L1-his was diluted to 200 nM in HBS-EP and injected over ligand and reference surfaces in repeated analyte pulses of increasing duration (waveRAPID) at flowrate of 60 μl/min. PD-L1-his was injected for a total duration of 180 sec, followed by measuring complex-dissociation in running buffer for 30 min. Blank injections were performed to enable double referencing of the data and a 0.5% DMSO pulse injection (running buffer with 0.5% DMSO) was used as an analyte concentration modulation calibration curve. […]

Assay [6] concerns the target T2, cPD-L1_hFc (canine PD-L1 Fc-fusion …). Description: binding ELISA, IgG titrated on plate-bound cPD-L1_hFc. The procedure: cPD-L1 fusion proteins were directly immobilized on the plate, commonly in a concentration of 57 nM. For binding ELISA, black 384 well Maxisorp plates were used. This was performed overnight at 4° C. The coated plates were washed 3× with PBS-T, followed by blocking with Chemiblocker (Merck-Millipore; 2170) for 1 h at RT. After blocking, dilution series of the respective antibodies were added to the plate usually covering concentrations ranging from the single digit ng/ml to the single-digit ug/ml range. Antibodies were also incubated for 1 h at RT, followed by washing and by addition of suitable detection antibodies coupled to HRP. Measurement was carried out as described above for the Screening ELISA.

The target of another assay is T4, canine PD-L1 on cells (canine).
T4 construct: also called wildtype canine PD-L1 on transfected HEK293c18 cells
T4 chain: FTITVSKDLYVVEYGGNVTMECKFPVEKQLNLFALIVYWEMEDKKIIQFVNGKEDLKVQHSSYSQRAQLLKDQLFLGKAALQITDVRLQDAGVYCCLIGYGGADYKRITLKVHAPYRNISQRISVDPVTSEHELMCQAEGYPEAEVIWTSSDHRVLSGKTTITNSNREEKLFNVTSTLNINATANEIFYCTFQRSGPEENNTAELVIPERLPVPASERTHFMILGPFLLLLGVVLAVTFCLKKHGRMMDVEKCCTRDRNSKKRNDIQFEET
Kind of assay: flow cytometry on HEK293c18 cells transfected with canine PD-L1. The procedure: HEK293c18 cells were seeded in 6 well plates at a density of 1×10⁶ cells/well in DMEM+10% FCS. The next day, the transfection mix was prepared. […] Per well, 2 μg of the plasmid encoding for wildtype canine PD-L1 was diluted in 200 μl jetPRIME buffer. The solution was mixed and 4 μl of the transfection reagent was added, followed by mixing and centrifuging of the mixture. Then, the medium of the adherent cells is replaced by fresh medium and the transfection mix is carefully added onto the cells. The plate containing the transfected cells is placed back in the incubator and incubated for 24 h.
The cells were washed once by addition of 200 μl per well PBS/EDTA and centrifugation at 1500 rpm for 5 min. The supernatant was carefully decanted by holding the plate upside down above a waste and dried on a paper towel. Then, the cells were stained for dead cells with the dye Zombie violet (Biolegend; Cat.: 423114) diluted 1:500 in PBS/EDTA for 15 minutes at 4° C. in the dark. Subsequently, cells were washed with FACS Buffer (PBS/EDTA+2% FCS) as described above. Titration series of CAN1005016 and CAN1005019 usually ranging from 10 ng/ml to 10 μg/ml were prepared diluted in FACS buffer and added to the respective wells for a 30-minute incubation at 4° C. in the dark. […] Finally, the cells were washed again 3× and then resuspended in 200 μl FACS buffer and measured directly.

In assay [7] the target is T3, PD-L1-his. Description: grating-coupled interferometry (waveRAPID): antibody captured on PAG chip, PD-L1-his as analyte, 1:1 fit, 25 C. The procedure: as §1
Prior to ligand capturing, the sensor chip was conditioned by a 180 sec injection of 100 mM sodium borate, 1 M NaCl, pH 9 (Xantec). Antibody was diluted to 1 μg/ml in HBS-EP and captured to a density of =300 pg/mm2 on flow channel 2. Flow channel 1 was left blank to serve as a reference surface. For collection of kinetic data, PD-L1-his was diluted to 200 nM in HBS-EP and injected over ligand and reference surfaces in repeated analyte pulses of increasing duration (waveRAPID) at flowrate of 60 μl/min. PD-L1-his was injected for a total duration of 180 sec, followed by measuring complex-dissociation in running buffer for 30 min. Blank injections were performed to enable double referencing of the data and a 0.5% DMSO pulse injection (running buffer with 0.5% DMSO) was used as an analyte concentration modulation calibration curve. Data were corrected (X and Y offset, DMSO calibration, double referencing) and fitted with a simple 1:1 interaction model (global fit) to obtain kinetic parameters.

B1: CAN1005016 Fab (Fab, V domains shown)
VH: EVQLVESGGDLVKPGGTLRLSCVASGFTFSSYDMSWVRQSPGKGLQWVAVIWNTGSHAYYADAVKGRFTISRDNAKNTLYLQMNSLRAEDTAVYYCARGRQPRLVGTLDLWGQGTLVTVSS
VL: SYVLTQLPSVSVTLRQTARITCGGDSIGSKNVYWYQQKLGQAPVLIIYDDSSRPSGIPERFSGANSGNTATLTISGALAEDEADYYCQTYDSLVDVGVFGGGTQLTVL
For the molecule B1, in assay [1], the EC50 was 0.087 nM. This lies in the picomolar range.

B2: CAN1005001 IgG (antibody, V domains shown)
VH: EVQLVESGGDLVKPAGSLRLSCVASGFTFSSYSMSWVRQAPEKGLQLVAGISSGGSSTYYTDAVKGRFTISRDNAKNTVYLQMNSLRAEDTAMYYCARGQGGRSSFDYWGQGTLVTVSS
VL: B1 VL with T89S, D91A, S92M, L93P, V94L, D95T, V96G, G97T
notes: also called initial clone CAN1005001; parental clone CAN1005001
As for B2, in assay [2], the IC50 was 4.6 nM. Further, the EC50 in assay [3] stood at 0.4 nM.

B3: CAN1005001L1 Fab (Fab, V domains shown)
VH: B2 VH
VL: B1 VL with T89S, S92I, L93P, V94L, D95T, V96G, G97T
notes: Fab from bacterial lysate
In the case of B3, the EC50 in assay [4] was 0.362 nM. In other words, the sub-nanomolar range.

B4: CAN1005016 IgG (antibody, V domains shown)
VH: B1 VH
VL: SYVLTQLPSVSVTLRQTARITCGGDSIGSKNVYWYQQKLGQAPVLIIYDDSSRPSGIPERFSGANSGNTATLTISGALAEDEADYYCQTYDSLVDVGVFGGGTQLTVLG
notes: also called biotinylated CAN1005016
Regarding B4, the “fold improvement in affinity against CAN1005010H2” value with PD-L1-his [5] was greater than 3 fold. In assay [2], this molecule returned an IC50 of 0.95 nM. Further, the EC50 in assay [6] was found to be 0.076 nM; with canine PD-L1 on cells, 10.5 nM. In the assay with PD-L1-his [7], binding was characterised by a dissociation constant (Kd) of 0.77 nM.

B5: CAN1005010H2 (as captured in the GCI measurement of anti-PD-L1 IgGs) (antibody, V domains shown)
VH: B1 VH
VL: B1 VL with Q88S, V94L
notes: also called parental clone CAN1005010H2
In the assay with PD-L1-his [7], B5 gave a Kd of 2.8 nM.

B6: CAN1005019 Fab (Fab, V domains shown)
VH: B2 VH with G50W, S52D, S53A, G54Y, G55A, S56G, S57V, Y59S, T61A, D62N
VL: B1 VL with T89S, S92I, L93P, V94L, D95T, V96G, G97T
In turn, B6 showed an EC50 in assay [1] of 0.138 nM. This counts as sub-nanomolar.

B7: CAN1005010H2 Fab (Fab, V domains shown)
VH: B1 VH
VL: B1 VL with Q88S, V94L
notes: Fab from bacterial lysate
Consider B7, for which the EC50 in assay [4] came to 0.121 nM.

B8: CAN1005001 Fab (Fab, V domains shown)
VH: B2 VH
VL: B1 VL with T89S, D91A, S92M, L93P, V94L, D95T, V96G, G97T
notes: also called parental clone CAN1005001
In assay [4], B8 had an EC50 of 0.82 nM.

B9: CAN1005010L1 Fab (Fab, V domains shown)
VH: B1 VH with T54E, H57S, A58T
VL: B1 VL
notes: Fab from bacterial lysate
Take B9: the EC50 in assay [4] came to 0.139 nM.

B10: CAN1005001H3 Fab (Fab, V domains shown)
VH: B2 VH with G50W, S52D, S53A, G54Y, G55A, S56G, S57V, Y59S, T61A, D62N
VL: B1 VL with T89S, D91A, S92M, L93P, V94L, D95T, V96G, G97T
notes: Fab from bacterial lysate
Molecule B10 gave an EC50 in assay [4] of 0.097 nM. This EC50 and that of the molecule before are within 1.5-fold of each other.

B11: CAN1005019 IgG (antibody, V domains shown)
VH: B2 VH with G50W, S52D, S53A, G54Y, G55A, S56G, S57V, Y59S, T61A, D62N
VL: B4 VL with T89S, S92I, L93P, V94L, D95T, V96G, G97T
notes: also called biotinylated CAN1005019
Molecule B11 yielded an IC50 in assay [2] of 1.32 nM. The EC50 in assay [6] was determined as 0.049 nM; with canine PD-L1 on cells it was 11.8 nM. Further, binding in the assay with PD-L1-his [7] was characterised by a dissociation constant (Kd) of 1.7 nM.
